A short description of the data set: amyloid nucleation score (Sup35N fusion, yeast selection) (log enrichment); library NNK3; higher = more nucleation; inactive = no reads after selection. In short, it runs like this:
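The nucleation score equals the log enrichment of output over input reads from DiMSum, centred on the mode score of non-aggregating sequences. It was computed only for sequences with 100 or more input reads. The reads came from Illumina sequencing of plasmid inserts from psi-negative yeast expressing Sup35N fused to peptides of 20 random codons, induced with 100 μM copper sulfate for 24 hours and grown 7 days at 30°C without adenine and uracil.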

± gives the uncertainty stated by the source.

For the substance RVPACAYACLAYGGYDDMAG, the amyloid nucleation score entry was “inactive”.

As to CDSTSITWGHVLWFYINYWM, the amyloid nucleation score result was “inactive”.

For the substance EGRNFRCLFG, the amyloid nucleation score result was “inactive”.

Regarding MCRVV, the amyloid nucleation score was -0.294 ± 0.93.

For LYIIFHNKYFLVEMGNYNCC, the amyloid nucleation score is 1.88 ± 0.07.

Consider LLDSVNGHCYMCLTIMGVRN, for which the amyloid nucleation score entry is “inactive”.

Regarding WWNLWSPAATATRRCY, the amyloid nucleation score was -0.462 ± 0.9.

Consider YQESKYIS, for which the amyloid nucleation score entry is “inactive”.

Consider GNSASLEEVVLMEEGGVLCA, for which the amyloid nucleation score result is “inactive”.

For FLGCNRV, the amyloid nucleation score entry is “inactive”.

As for KQLHLMLIVQIVATKTVNAP, the amyloid nucleation score result is “inactive”.

For FGVFVWEVVVGNMLLPHMVN, the amyloid nucleation score entry was “inactive”.

For DFYFRVIVVGGHCVSDTSFL, the amyloid nucleation score entry is “inactive”.

Regarding TPLSHNVRIMKKLGCDRRD, the amyloid nucleation score entry was “inactive”.

On to TLGPKEGWLVSNWMWSRVII, for which the amyloid nucleation score entry was “inactive”.

On to SRRVISEHSMEGNTID, for which the amyloid nucleation score result was “inactive”.

Take TSKRDYDRCRFL: the amyloid nucleation score entry is “inactive”.

With QRLIRMSFSMAHMTSNFVMV, the amyloid nucleation score result was “inactive”.

Regarding QILVLHIR, the amyloid nucleation score turned out to be 1.71 ± 0.079.

With PFGPHYNPTM, the amyloid nucleation score entry was “inactive”.

With CCARGGRVCRQLGLVSYTNV, the amyloid nucleation score result was “inactive”.

Turning to VLVAHMRGEPGVANEWPLFQ, the amyloid nucleation score result was “inactive”.

MLSGWFGLMIGCTAVVWSDS: the amyloid nucleation score entry is “inactive”.

On to SQVVSRSLVRLEQRNAQKSV, for which the amyloid nucleation score entry is “inactive”.

Consider EGFPV, for which the amyloid nucleation score entry was “inactive”.

Take LYGAWSNIPLYMFSFHFMYR: the amyloid nucleation score entry was “inactive”.

As for FGINDCVIRV, the amyloid nucleation score result was “inactive”.

With WAGGSDPRCNFKCLCVKGFC, the amyloid nucleation score entry is “inactive”.

Take SFMKQIFSYARLVRISKSVG: the amyloid nucleation score result is “inactive”.

Take RSLVCRFLTGTDMVCGIGVT: the amyloid nucleation score entry is “inactive”.

Substance SWSFMFSFSNSATNAACLPQ returned an amyloid nucleation score of 0.327 ± 0.27.

Take YLMIIDRPKSHNLPYLGMLH: the amyloid nucleation score entry was “inactive”.

Take ARYRHGFTALRND: the amyloid nucleation score result was “inactive”.

In the case of LVVIG, the amyloid nucleation score entry is “inactive”.

AATYTTYHLESSNVYSFNFW had an amyloid nucleation score of 2.96 ± 0.048.

Turning to IHIFTLKYKVRARKLATTIS, the amyloid nucleation score result was “inactive”.

Regarding NIKFIEHLLSYSSTPQPLTC, the amyloid nucleation score result was “inactive”.

In the case of YTLLCNPMVSKSARRLLNWI, the amyloid nucleation score entry was “inactive”.

In the case of LYMYYWLSYVV, the amyloid nucleation score entry is “inactive”.

Regarding RVIDQMNPQGGWDLTFDSRR, the amyloid nucleation score result is “inactive”.

Turning to MKSKKPNSLDENYGSMRHF, the amyloid nucleation score result is “inactive”.

Turning to ENERM, the amyloid nucleation score entry is “inactive”.

In the case of GESNVFILSAFNFNALVGFS, the amyloid nucleation score result was “inactive”.

With SHKFRMITIGPSSMIGALTC, the amyloid nucleation score entry is “inactive”.

For the substance FTLARAMPLGYSQGIMKSRG, the amyloid nucleation score entry is “inactive”.

Take VSMFMNRNQKSIKNRVRHYM: the amyloid nucleation score result was “inactive”.

Turning to LRSVLSVGGEMAYINCNQLL, the amyloid nucleation score entry was “inactive”.

NSFDCVRDWLPLIF: the amyloid nucleation score entry is “inactive”.

In the case of EVFHIRMSVF, the amyloid nucleation score is -0.577 ± 2.4.

For NVGMSKNVFGM, the amyloid nucleation score entry is “inactive”.

Turning to YRLRSICSFLGVVSYG, the amyloid nucleation score result was “inactive”.

As for TVRKHLLLDHKWYVVNSEIT, the amyloid nucleation score result is “inactive”.

IKCIPFCDVGWSLTVLRYVT: the amyloid nucleation score result is “inactive”.

Substance AFVRMLW had an amyloid nucleation score of 1.49 ± 0.13.

Take RTLYMLRIALGHGPVTLEI: the amyloid nucleation score entry is “inactive”.

For the substance YLYRFLPVQTRPLMHATSYI, the amyloid nucleation score result was “inactive”.

Turning to GVKTHGIAVMKVGLRRLCQG, the amyloid nucleation score entry is “inactive”.

INICLLLKQRHEWMCCKNCM had an amyloid nucleation score of 2.85 ± 0.074.

In the case of LRLNLMSILKVEYRCSMITW, the amyloid nucleation score entry was “inactive”.

For the substance FLWMSGSSGWLSTVVIGGSW, the amyloid nucleation score entry was “inactive”.

In the case of LSFSRDRLLHSSWGTKLMIM, the amyloid nucleation score result was “inactive”.

As for VVMRFCWRKSTIVISFVTVM, the amyloid nucleation score result is “inactive”.

On to CEFTYGKDAKVRTEAYHAYW, for which the amyloid nucleation score result was “inactive”.

On to KTLVRNMDNKPCRFSLTSNF, for which the amyloid nucleation score entry was “inactive”.

With SAYAGYKRLGASEVILLSPY, the amyloid nucleation score entry was “inactive”.

Turning to GIWCDITHGNRMAWNYVLIR, the amyloid nucleation score result is “inactive”.

As for SCWKTHSAKNSNGS, the amyloid nucleation score entry is “inactive”.

With CTRSVSILESLRDSNTSLSQ, the amyloid nucleation score entry was “inactive”.

In the case of CDFYVNGTGPSETRWNSKEH, the amyloid nucleation score entry was “inactive”.

With MLHLYQIIMRPYTLSGWWYY, the amyloid nucleation score result was “inactive”.

As to NKDFGFSYIRTFPRILKVW, the amyloid nucleation score result is “inactive”.

As for VVSAV, the amyloid nucleation score entry was “inactive”.

Take VIANVKIMTFFMAFSAVHTM: the amyloid nucleation score was found to be 1.48 ± 0.13.

As to LRMFNGSEAIYFMLVQSLFR, the amyloid nucleation score result is “inactive”.

With GQNPSLRLVKESGF, the amyloid nucleation score entry is “inactive”.

For SCAAPMIILTDKSCGRRGLG, the amyloid nucleation score entry was “inactive”.

VNKNVMWHDNNKFFHPFRAI came in with an amyloid nucleation score of 1.6 ± 0.082.

Consider IVYGKHAWWIRLGSIHVFYY, for which the amyloid nucleation score result is “inactive”.

For AFRTFSFLGITS, the amyloid nucleation score result is “inactive”.

Regarding IGKVLDAFGE, the amyloid nucleation score entry was “inactive”.

Consider FKSVIESTLMIETDY, for which the amyloid nucleation score result is “inactive”.

Regarding YLICTRPILSLASLVS, the amyloid nucleation score entry was “inactive”.

In the case of YGSIV, the amyloid nucleation score entry was “inactive”.

QSRPKMMFLDSGCFWGFCVR: the amyloid nucleation score entry is “inactive”.

In turn, KVRQARGILASEGIGQETVG displayed an amyloid nucleation score of 1.33 ± 0.14.

Take EDFLNSWKVSYWKNHTMVVW: the amyloid nucleation score result was “inactive”.

As for FLYYATGHRIFLV, the amyloid nucleation score result was “inactive”.

With YIFVSRIIGVPFRLVQVTSG, the amyloid nucleation score result was “inactive”.

With LCDSGWELMYKLCTDKDMIL, the amyloid nucleation score entry is “inactive”.

In the case of WEKYMRMSGRPMGRFKMTGR, the amyloid nucleation score result is “inactive”.

As for RLINKYWSPNPMLRKFR, the amyloid nucleation score was determined as 1.09 ± 0.11.

With RGCKKLYRIKANVMYVSTVN, the amyloid nucleation score entry is “inactive”.

On to CRPRLVLSFGQIVY, for which the amyloid nucleation score result is “inactive”.

For VDFYAQ, the amyloid nucleation score entry is “inactive”.

On to RQHMDGVVDI, for which the amyloid nucleation score result was “inactive”.

Consider SLCLASGFKRCNIV, for which the amyloid nucleation score is -0.072 ± 0.8.

The values above are taken from the supplement of paper PMC12042874.
